Data reported in publication PMC12051018, “Purification and characterization of a thermophilic NAD ^+‐dependent lactate dehydrogenase from Moorella thermoacetica” (FEBS Open Bio, 2025).

B1: LDH from M. thermoacetica (Moorella thermoacetica ATCC 39073) (protein)
chain: MGLQGPAKVAIIGTGYVGSSTAFALLFSPLVKEMVLVDVNHAKAEGEAMDLAHAATLIRPVEVYAGRPADCAGSRIVIFTAGANQQPGQTRLDLIHRNTAIVRQALPEILHYCPEALVLMVANPVDILTYVAWKISGLPENRVLGSGTVLDSARFRHLLSRHYRVDPRNIHAYVIGEHGDTEVPVWSLANVAGVDLEEFYLMDGMREEEAFRVEISHQVREAAYEIIERKGVTSYGVALALSRIIECILRNEHSVLTISSVIRDLYGIDGEVALSLPCLVGNEGREKVLAIPLVAREKAALKHSATTLQQLIAQLSL
notes: native full-length, purified from lactate-grown cells; native 60 kDa, dimer
B2: NAD+-dependent lactate dehydrogenase from Moorella thermoacetica (enzyme, Moorella thermoacetica (DSM 521), UniProt Q2RHG3 1-317, looked up)
chain: MGLQGPAKVAIIGTGYVGSSTAFALLFSPLVKEMVLVDVNHAKAEGEAMDLAHAATLIRPVEVYAGRPADCAGSRIVIFTAGANQQPGQTRLDLIHRNTAIVRQALPEILHYCPEALVLMVANPVDILTYVAWKISGLPENRVLGSGTVLDSARFRHLLSRHYRVDPRNIHAYVIGEHGDTEVPVWSLANVAGVDLEEFYLMDGMREEEAFRVEISHQVREAAYEIIERKGVTSYGVALALSRIIECILRNEHSVLTISSVIRDLYGIDGEVALSLPCLVGNEGREKVLAIPLVAREKAALKHSATTLQQLIAQLSL
notes: L-lactate dehydrogenase of Moorella thermoacetica DSM 521, product of the ldh gene (954 bp, predicted mass 34.6 kDa), identified by peptide mass fingerprinting; Native enzyme purified from the organism; on SDS-PAGE about 34 kDa, which fits the predicted monomer; also called LDH; gene product of the ldh gene

How the values were obtained:
purified protein [1] = substrate: CC(=O)C(=O)O; assay: purified protein; format: biochemical, Neomoorella thermoacetica; settings: 0.5 mM NADH, 50 mM Tris/HCl pH 8, 10 mM NaCl, 4 mM DTE, 65 °C, anoxic
purified protein [2] = substrate: C[C@H](O)C(=O)O; assay: purified protein; format: biochemical, Neomoorella thermoacetica; settings: 2 mM NAD+, 50 mM Tris/HCl pH 8, 10 mM NaCl, 4 mM DTE, 65 °C, anoxic
purified protein [3] = substrate: NC(=O)C1=CN([C@@H]2O[C@H](COP(=O)(O)OP(=O)(O)OC[C@H]3O[C@@H](n4cnc5c(N)ncnc54)[C@H](O)[C@@H]3O)[C@@H](O)[C@H]2O)C=CC1; assay: purified protein; format: biochemical, Neomoorella thermoacetica; settings: 1 mM pyruvate, 50 mM Tris/HCl pH 8, 10 mM NaCl, 4 mM DTE, 65 °C, anoxic, varied: cofactor
purified protein [4] = substrate: NC(=O)c1ccc[n+]([C@@H]2O[C@H](COP(=O)(O)OP(=O)(O)OC[C@H]3O[C@@H](n4cnc5c(N)ncnc54)[C@H](O)[C@@H]3O)[C@@H](O)[C@H]2O)c1; assay: purified protein; format: biochemical, Neomoorella thermoacetica; settings: 20 mM L-lactate, 50 mM Tris/HCl pH 8, 10 mM NaCl, 4 mM DTE, 65 °C, anoxic, varied: cofactor
[5] = molecular target: the molecule itself; assay: SEC; calibrated Superose 6 column, buffer 4 (50 mM Tris/HCl pH 7.5, 150 mM NaCl, 20 mM MgSO4, 20% glycerol, 4 mM DTE, 4 uM resazurin), size standards aprotinin, carbonic anhydrase, ovalbumin, conalbumin; native size 60 kDa against a 34 kDa monomer

Protein	Km (purified protein [1]) [µM]	Km (purified protein [2]) [µM]	Km (purified protein [3]) [µM]	Km (purified protein [4]) [µM]	stoichiometry N [5]
B1	1000	20000	100	500	–
B2	–	–	–	–	2
